Data published in publication doi:10.1101/2021.10.02.462850 (bioRxiv, 2021).

Target: the molecule itself
Assay: crystal structure

B1: RUN1^TIR-E100A (domain or fragment, grapevine, UniProt V9M398 23-198, looked up)
chain: RTITYDVFLSFRGEDTRFNFTDHLYSALGRRGIRTFRDDKLRRGEAIAPELLKAIEESRSSVIVFSENYARSRWCLDALVKIMECHKDKKDPGHAVFPIFYHVDPSHVRKQEGSFGEAFAGYGENLKDKIPRWRTALTEAANLSGWPLQDGYESNQIKEITDSIFRRLKCKRLDAG
binding result: binds
